target: Human F1Fo-ATPase purified from HepG2 cells (human); assay: cell-based or functional assay

Row | F1-ATPase activity (NADH-coupled assay, purified F1Fo-ATPase, 1 µM peptide), inhibition as compared to control [%] | Binder
1 | 88 | RGAGSIREAGGAFGKREQAEEERYFRAQSREQLAALKKHHEEEIVHH [IF1-10-56]
2 | 75 | RGAGSIREAGGAFGKREQAEEERYFRAQSREQLAALKK [IF1-10-47]
3 | 94 | IF1-1-60 (peptide) peptide: GSDQSENVDRGAGSIREAGGAFGKREQAEEERYFRAQSREQLAALKKHHEEEIVHHKKEI

Source: patent publication US20230050846A1 (LIFESEARCH, published 2023)
